From PMC1308866, “Inhibition of HIV derived lentiviral production by TAR RNA binding domain of TAT protein”

What was measured:
Assay in all cases: EMSA; 0.25 nmol RNA in 10 ul; peptide:RNA molar ratio 0-1
Settings in all cases: hairpin
Tat-P = molecular target: T1, Tat-P (HIV, UniProt P69698)
T1 chain: YGRKKRRQRRR

Con-P2 = molecular target: T2, Con-P2
T2 chain: ARPLEHGSDKAT

Con-P1 = molecular target: T3, Con-P1
T3 chain: RRQRRTSKLMKR

B1: TAR RNA 29mer (structured_RNA)
RNA: GCCAGAUCUGAGCCUGGGAGCUCUCUGGC
Question: What does the source list for B1?
Answer: binding result (Tat-P): binds; binding result (Con-P2): no binding; binding result (Con-P1): no binding
